Measured values from patent US20240018189A1 (PROTAGONIST THERAPEUTICS, published 2024).
Starred links: 1 amine or outer side, 2 acyl side, 3 side chain; linkers in the order of their positions; H or OH if unused. Positions of bridges follow the written chain, without caps; N, C: chain ends. Non-standard residues stand in square brackets, D forms with d. Groups on a side chain read outwards from the residue. Chains are numbered I, II in the order given. No end group written: not given here. *: point of attachment. PEG12 = NCCOCCOCCOCCOCCOCCOCCOCCOCCOCCOCCOCCOCCC(=O)O; Phe(4-tBu) = CC(C)(C)c1ccc(C[C@H](N)C(=O)O)cc1; Dip = N[C@H](C(=O)O)C(c1ccccc1)c1ccccc1; γGlu = O=C(O)[C@H](CCC(=O)[*:2])N[*:1]; Palmitoyl = CCCCCCCCCCCCCCCC(=O)*; 2Pal = N[C@@H](Cc1ccccn1)C(=O)O; β3hF = N[C@H](CC(=O)O)Cc1ccccc1; NMeL = CN[C@@H](CC(C)C)C(=O)O; Isovaleryl = CC(C)CC(=O)*; Npc = nipecotic acid; Ahx = NCCCCCC(=O)O; βAla = NCCC(=O)O; Sar = CNCC(=O)O

T1: human ferroportin (SLC40A1) fused in frame with GFP (human) (UniProt Q9NP59)
T1 sequence (looked up): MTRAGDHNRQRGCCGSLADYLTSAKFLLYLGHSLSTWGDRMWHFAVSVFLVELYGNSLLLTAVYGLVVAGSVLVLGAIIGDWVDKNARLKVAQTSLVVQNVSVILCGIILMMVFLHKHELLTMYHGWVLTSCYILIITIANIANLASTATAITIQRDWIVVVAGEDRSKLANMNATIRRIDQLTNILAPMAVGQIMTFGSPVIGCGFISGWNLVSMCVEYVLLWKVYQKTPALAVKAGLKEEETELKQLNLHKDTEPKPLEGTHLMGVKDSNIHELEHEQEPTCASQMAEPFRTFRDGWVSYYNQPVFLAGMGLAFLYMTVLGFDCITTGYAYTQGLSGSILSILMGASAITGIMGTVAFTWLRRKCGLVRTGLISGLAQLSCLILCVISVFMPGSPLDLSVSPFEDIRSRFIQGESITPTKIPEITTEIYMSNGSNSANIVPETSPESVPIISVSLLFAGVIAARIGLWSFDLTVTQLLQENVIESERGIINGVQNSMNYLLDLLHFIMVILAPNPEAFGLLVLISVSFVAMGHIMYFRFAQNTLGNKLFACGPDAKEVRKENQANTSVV


Target: T1, human ferroportin (SLC40A1) fused in frame with GFP (human)
Experiment: cell-based or functional assay

Binder | FPN EC50 | IC50: FPN internalisation
DTHXPCIKXKC (N-term isovaleric acid; 4 Dpa; 8 Lys[Ahx-isoGlu-Palm]; 9 bhPhe; 10 (D)Lys; C-term NH2) [Compd. ID 5] | 0.75 nM | –
DTHXPCIKXKKC (N-term isovaleric acid; 4 Dpa; 8 (D)Lys; 9 bhPhe; 10 Lys(2Peg11′_KKK_Palm); 11 (D)Lys; C-term NH2) [Compd. ID 44] | 37.9 nM | –
Seq. No. 317 (disulfide I:6-II:4) peptide 1: Isovaleryl-DTHFPCIK([γGlu-Palmitoyl])FEPR peptide 2: SKGCK-NH2 | – | 13.7 nM
DTHXPCIKXKC (N-term isovaleric acid; 4 Dpa; 8 Lys[isoGlu-Palm]; 9 bhPhe; 10 (D)Lys; C-term NH2) [Compd. ID 6] | 6.16 nM | –
Isovaleryl-DTH[Dip]PCI[β3hF][dK]C-NH2 (disulfide 6-10 (inferred)) [Seq. No. 324] | – | 23.3 nM
DTHXPCIKXKKC (N-term isovaleric acid; 4 Dpa; 8 (D)Lys; 9 bhPhe; 10 Lys(1Peg2_1Peg2_IsoGlu_C18_Diacid); 11 (D)Lys; C-term NH2) [Compd. ID 42] | 1700 nM | –
Isovaleryl-DTH[Dip][Npc]CI[dK][β3hF]K([Ahx-Palmitoyl])[dK]C-NH2 (disulfide 6-12 (inferred)) [Compd. ID 4] | 6.35 nM | –
DTHXPCIKXKKC (N-term isovaleric acid; 4 Dpa; 8 (D)Lys(PEG12_OMe); 9 bhPhe; 10 Lys(1PEG2_1PEG2_IsoGlu_C18_Diacid); 11 (D)Lys(PEG12_OMe); C-term NH2) [Compd. ID 253] | > 3000 nM | –
Isovaleryl-DTHFPCLK([γGlu-Palmitoyl])FEPRSKGCK-NH2 (disulfide 6-16 (inferred)) [Compd. ID 216] | 16.6 nM | –
DTHXPCIKXKKC (N-term isovaleric acid; 4 Dpa; 8 (D)Lys; 9 bhPhe; 10 Lys(2Peg11′_KKKGS_Palm); 11 (D)Lys; C-term NH2) [Compd. ID 45] | 24.5 nM | –
DTHFPCIKXKKC (not fully specified; N-term isovaleric acid; 4 MePhe; 8 (D)Lys; 9 bhPhe; 10 Lys(Ahx_Palm); 11 (D)Lys; C-term NH2) [Compd. ID 203] | 28 nM | –
DTHXPCIKXKC (N-term isovaleric acid; 4 Dpa; 8 Lys[Ahx-Behenic_Acid]; 9 bhPhe; 10 (D)Lys; C-term NH2) [Compd. ID 8] | 550 nM | –
DTHFPCIKXKKC (N-term isovaleric acid; 8 (D)Lys; 9 bhPhe; 10 Lys(Palm); C-term NH2) [Compd. ID 205] | 4.23 nM | –
Isovaleryl-DTHFPCIK(Ac)FK([PEG12-Palmitoyl])PK(Ac)SK(Ac)[Sar]CK-NH2 (disulfide 6-16 (inferred)) [Compd. ID 214] | 7.19 nM | –
DTHXPCIKXKC (N-term isovaleric acid; 4 Dpa; 8 Lys[1Peg2-1Peg2-isoGlu-Behenic_Acid]; 9 bhPhe; 10 (D)Lys; C-term NH2) [Compd. ID 9] | 18.4 nM | –
Isovaleryl-DTH[Dip]PCI[β3hF]K([Ahx-Palmitoyl])[dK]C-NH2 (disulfide 6-11 (inferred)) [Compd. ID 206] | 10.8 nM | –
Isovaleryl-DTHFPCIK([γGlu-Palmitoyl])FEPR [Compd. ID 219] | 12.6 nM | –
Isovaleryl-DTH[Dip]PCIK([Ahx-Palmitoyl])[2Pal]C-NH2 (disulfide 6-10 (inferred)) [Seq. No. 320] | – | 9.72 nM
DTHXPCIKXKC (N-term isovaleric acid; 4 Dpa; 8 Lys(Ahx_Palm); 9 2Pal; 10 (D)Lys; C-term NH2) [Seq. No. 321] | – | 21.7 nM
DTHXPCIKXKKC (N-term isovaleric acid; 4 Dpa; 8 (D)Lys; 9 bhPhe; 10 Lys(1Peg2_1Peg2_Ahx_C18_Diacid); 11 (D)Lys; C-term NH2) [Compd. ID 43] | 283 nM | –
Isovaleryl-DTHFPCIK([γGlu-Palmitoyl])FEPRSKGC (disulfide 6-16 (inferred)) [Compd. ID 218] | 15.6 nM | –
DTHXPCIKXKC (N-term isovaleric acid; 4 Dpa; 8 (D)Lys(Ac); 9 bhPhe; 10 Lys(Ac); C-term NH2) [Seq. No. 325] | – | 37.8 nM
Isovaleryl-DTH[Dip]PCI[βAla][β3hF][dK]C-NH2 (disulfide 6-11 (inferred)) [Seq. No. 323] | – | 10.6 nM
Isovaleryl-DTHFPC[NMeL]K([γGlu-Palmitoyl])FEPRSKGCK-NH2 (disulfide 6-16 (inferred)) [Compd. ID 244] | 9.59 nM | –
Isovaleryl-DTH[Dip]PC[NMeL][dK][β3hF]K([Ahx-Palmitoyl])[dK]C-NH2 (disulfide 6-12 (inferred); not fully specified) [Compd. ID 201] | 12.5 nM | –

Now from value to binder:

FPN EC50 | IC50: FPN internalisation | Binder
– | 23 nM | DTHXPCIKXKKC (N-term isovaleric acid; 4 Dpa; 8 (D)Lys; 9 Dpa; 10 Lys(PEG12_Palm); 11 (D)Lys; C-term NH2) [Seq. No. 345]
– | 95.7 nM | DTHXPCIKXKC (N-term isovaleric acid; 4 Dpa; 8 (D)Lys; 9 bhPhe; 10 Lys(Ac); C-term NH2) [Seq. No. 326]
– | 142 nM | DTHXPCIKXKKC (N-term isovaleric acid; 4 Dpa; 8 (D)Lys; 9 bhPhe; 11 (D)Lys; C-term NH2) [Seq. No. 327]
– | 20.4 nM | DTHXPCIKFKXC (N-term isovaleric acid; 4 Dpa; 8 (D)Lys; 10 Lys(PEG12 Palm); 11 bhLys; C-term NH2) [Seq. No. 338]
– | 24 nM | Isovaleryl-DTH[Dip]PCII[β3hF]K([PEG12-Palmitoyl])[dK]C-NH2 (disulfide 6-12 (inferred)) [Seq. No. 331]
– | 7.75 nM | DTHXPCIKFKKX (N-term isovaleric acid; 4 Dpa; 8 (D)Lys; 10 Lys(PEG12_Palm); 11 (D)Lys; 12 Pen; C-term NH2) [Seq. No. 344]
– | 6.93 nM | Isovaleryl-DTH[Dip]PCI[β3hF]K([PEG12-Palmitoyl])[dK]C-NH2 (disulfide 6-11 (inferred)) [Seq. No. 330]
– | 22 nM | DTHXPCIKFKC (N-term isovaleric acid; 4 Dpa; 8 (D)Lys; 10 Lys(PEG12_Palm); C-term NH2) [Seq. No. 341]
– | 16.5 nM | Isovaleryl-DTH[Dip][Npc]CI[dK][Phe(4-tBu)][dK]CK([PEG12-Palmitoyl])-NH2 (disulfide 6-11 (inferred)) [Seq. No. 328]
– | 32 nM | Isovaleryl-DTHFPCI[dK]FK([PEG12-Palmitoyl])CK-NH2 (disulfide 6-11 (inferred)) [Seq. No. 334]
– | 7.16 nM | Isovaleryl-DTH[Dip]PCI[βAla][β3hF]K([PEG12-Palmitoyl])[dK]C-NH2 (disulfide 6-12 (inferred)) [Seq. No. 333]
– | 26.9 nM | DTHXPCIKFKXC (N-term isovaleric acid; 4 Dpa; 8 (D)Lys; 10 Lys(PEG12_Palm); 11 Orn; C-term NH2) [Seq. No. 340]
– | 11 nM | Isovaleryl-DTH[Dip]PCI[dA][β3hF]K([PEG12-Palmitoyl])[dK]C-NH2 (disulfide 6-12 (inferred)) [Seq. No. 332]
– | 22.8 nM | DTHXPCIKFKXC (N-term isovaleric acid; 4 Dpa; 8 (D)Lys; 10 Lys(PEG12 Palm); 11 Dab; C-term NH2) [Seq. No. 339]
